Measurements from publication PMC5597622, “Engineered factor Xa variants retain procoagulant activity independent of direct factor Xa inhibitors” (Nature Communications, 2017).
Where two headings read alike, the source gives them in different places. Non-standard residues stand in square brackets, D forms with d. Residues, ends and D or L forms follow the SMILES beside them. *: point of attachment. dChg = N[C@@H](C(=O)O)C1CCCCC1; pNA = O=[N+]([O-])c1ccc(N*)cc1; Cbz = O=C(OCc1ccccc1)*; Moc = COC(=O)*

Assays:
[1] = tested on: T1, FXa-C; format: biochemical; settings: read-out: SpecXa Michaelis–Menten constant (K m)
T1 construct: His91-Tyr99 replaced with homologous region of P. textilis isoform FX

[2] = tested on: T2, FXa-B; format: biochemical; settings: read-out: SpecXa Michaelis–Menten constant (K m)
T2 construct: His91-Tyr99 replaced with homologous region of T. carinatus venom FX

[3] = target: T3, wt-FXa (WT) (Homo sapiens, UniProt P00742); format: biochemical; settings: read-out: SpecXa Michaelis–Menten constant (K m)
T3 construct: gene F10; free or prothrombinase-assembled with FV-810 and PCPS, see series

[4] = tested on: T4, FXa-A; format: biochemical; settings: read-out: SpecXa Michaelis–Menten constant (K m)
T4 construct: His91-Tyr99 replaced with homologous region of P. textilis venom FX

[5] = target: T5, pd-FXa (h-FXa) (Homo sapiens, UniProt P00742); format: biochemical; settings: read-out: SpecXa Michaelis–Menten constant (K m)
T5 construct: gene F10; plasma-derived human FXa (Haematologic Technologies); free or prothrombinase-assembled with FV-810 and PCPS, see series

[6] = target: chimeric factor Xa variant B (human FXa with His91-Tyr99 replaced by the homologous region of Tropid (human | Tropidechus carinatus)); test: inhibition of enzyme amidolytic activity (Morrison tight-binding fit)
[7] = target: chimeric factor Xa variant C (human FXa with His91-Tyr99 replaced by the homologous region of P. textilis isoform FX) (human | Pseudonaja textilis); test: as above
[8] = target: recombinant wild-type human factor Xa (human); test: as above
[9] = target: T5, pd-FXa (h-FXa); format: biochemical; settings: read-out: S2765^b K m; n = 2
[10] = target: T3, wt-FXa (WT); format: biochemical; settings: read-out: S2765^b K m; n = 2
[11] = tested on: T1, FXa-C; format: biochemical; settings: n = 2; read-out: S2765^b K m
[12] = target: T5, pd-FXa (h-FXa); format: biochemical; settings: read-out: S2765^a K m; n = 2
[13] = tested on: T2, FXa-B; format: biochemical; settings: n = 2; read-out: S2765^b K m
[14] = tested on: T4, FXa-A; format: biochemical; settings: n = 2; read-out: S2765^b K m
[15] = tested on: T2, FXa-B; format: biochemical; settings: n = 2; read-out: S2765^a K m
[16] = tested on: T1, FXa-C; format: biochemical; settings: n = 2; read-out: S2765^a K m
[17] = target: T3, wt-FXa (WT); format: biochemical; settings: read-out: S2765^a K m; n = 2
[18] = tested on: T4, FXa-A; format: biochemical; settings: n = 2; read-out: S2765^a K m
[19] = target: constitutively active partial B-domainless recombinant form of human FV (FV-810) (human) (UniProt P12259); test: kinetic assay of prothrombinase assembly (rate of prothrombin activation); apparent; steady-state initial velocities of prothrombin activation at 25 °C in assay buffer (20 mM Hepes, 0.15 M NaCl, pH 7.5, 5 mM CaCl2, 0.1% PEG8000) with PCPS (50 µM); how the cofactor was varied is not told
[20] = target: FXa-B (Homo sapiens, UniProt P00742); test: Inhibition of FXa by TFPI and rTAP (residual amidolytic activity); format: biochemical, human-snake chimera; settings: rTAP 0.5–100 nM, 1 nM FXa, 30 min
[21] = tested on: FXa-B; test: as above; format: biochemical, human-snake chimera; settings: in the chimeric FXa variants
[22] = target: T6, FXa-C (Homo sapiens, UniProt P00742, E317A/INS311KKFVPPQKA/K316L/N312Y/R313K/T315D/T318A); format: biochemical, human-snake chimera; settings: rTAP 0.5–100 nM, 1 nM FXa, 30 min
T6 construct: made in house

[23] = target: T7, pd-FXa (Homo sapiens, UniProt P00742); format: biochemical
T7 construct: the heavy chain derived from α or β FXa (α/β), the FXa light chain (LC); purchased Haematologic Technologies (Essex Junction, VT, USA); host or cells: human plasma

[24] = target: FXa-A (Homo sapiens, UniProt P00742); format: biochemical, human-snake chimera; settings: rTAP 0.5–100 nM, 1 nM FXa, 30 min
[25] = target: T8, wt-FXa (Homo sapiens, UniProt P00742); test: Inhibition of FXa by TFPI and rTAP (residual amidolytic activity); format: biochemical
T8 construct: made in house; host or cells: HEK293 (co-transfected with furin)

[26] = target: RVV-X activated P. textilis isoform FX (Pseudonaja textilis, UniProt Q1L658); test: biochemical
[27] = target: RVV-X activated P. textilis liver FX (Pseudonaja textilis, UniProt Q1L659); test: biochemical
[28] = target: purified recombinant P. textilis venom FXa (v-FXa) (Pseudonaja textilis, UniProt Q56VR3); test: biochemical
[29] = target: RVV-X activated P. textilis venom FX (Pseudonaja textilis, UniProt Q56VR3); test: biochemical
[30] = target: chimeric factor Xa variant B (human FXa with His91-Tyr99 replaced by the homologous region of Tropid (human | Tropidechus carinatus))
[31] = target: plasma-derived human factor Xa (human)
[32] = target: chimeric factor Xa variant C (human FXa with His91-Tyr99 replaced by the homologous region of P. textilis isoform FX) (human | Pseudonaja textilis)
[33] = target: recombinant wild-type human factor Xa (human)
[34] = target: plasma-derived human factor Xa (human); test: inhibition of enzyme amidolytic activity (Morrison tight-binding fit)

COC(=O)N[C@@H](C(=O)NCC(=O)N[C@@H](CCCNC(=N)N)C(=O)Nc1ccc([N+](=O)[O-])cc1)C1CCCCC1 [SpecXa, methoxycarbonylcyclohexylglycylglycyl-Arg-pNA] (Moc-[dChg]-Gly-Arg-pNA)
Km [1]: 659 µM
Km [2]: 658 µM
Km [3]: 135 µM
Km [4]: 645 µM
Km [5]: 138 µM

tissue factor pathway inhibitor alpha (from UniProt P10646-1 29-304) (natural protein)
Ki [6]: 4.41 nM
Ki [7]: 6.46 nM
Ki [8]: 1.62 nM

N=C(N)NCCC[C@H](NC(=O)CNC(=O)[C@@H](CCCNC(=N)N)NC(=O)OCc1ccccc1)C(=O)Nc1ccc([N+](=O)[O-])cc1 [S2765, N-α-benzyloxycarbonyl-D-Arg-Gly-Arg-pNA] (Cbz-[dR]-Gly-Arg-pNA)
Km [9]: 29 ± 8 µM
Km [10]: 26 ± 8 µM
Km [11]: 216 ± 28 µM
Km [12]: 59 ± 19 µM
Km [13]: 249 ± 29 µM
Km [14]: 243 ± 50 µM
Km [15]: 49 ± 8 µM
Km [16]: 60 ± 11 µM
Km [17]: 33 ± 7 µM
Km [18]: 39 ± 7 µM

plasma-derived human factor Xa (enzyme)
Kd [19]: 0.41 nM

rTAP (YNRLCIKPRDWIDECDSNEGGERAYFRNGKGGCDSFWICPEDHTGADYYSSYRDCFNACI)
Ki [20]: 7.92 ± 1.88 nM
fold reduced binding [21]: at least 11 fold
Ki [22]: 20.2 ± 6.56 nM
Ki [23]: 0.87 ± 0.18 nM
Ki [24]: 26.3 ± 8.45 nM
Ki [25]: 0.7 ± 0.04 nM

COc1ccc(-n2nc(C(N)=O)c3c2C(=O)N(c2ccc(N4CCCCC4=O)cc2)CC3)cc1 [Apixaban, 1-(4-methoxyphenyl)-7-oxo-6-(4-(2-oxopiperidin-1-yl)phenyl)-4,5,6,7-tetrahydro-1H -pyrazolo[3,4-c]pyridine-3-carboxamide]
IC50 [26]: ≥ 100000 nM
IC50 [27]: 12 nM
IC50 [28]: ≥ 100000 nM
IC50 [29]: ≥ 100000 nM

O=C(NC[C@H]1CN(c2ccc(N3CCOCC3=O)cc2)C(=O)O1)c1ccc(Cl)s1 [Rivaroxaban, 5-chloro-N-({(5S)-2-oxo-3-[4-(3-oxomorpholin-4-yl)phenyl]-1,3-oxazolidin-5-yl}methyl)thiophene-2-carboxamide]
IC50 [28]: ≥ 30000 nM

recombinant wild-type human factor Xa (enzyme)
Kd [19]: 1.44 nM

antithrombin (from UniProt P01008 33-464) (natural protein)
k 2, UFH: second-order rate constant of FXa inhibition by antithrombin with unfractionated heparin [30]: 1.02e+06 M⁻¹ s⁻¹
k 2, uncatalyzed: second-order rate constant of FXa inhibition by antithrombin [30]: 410 M⁻¹ s⁻¹
k 2, UFH: second-order rate constant of FXa inhibition by antithrombin with unfractionated heparin [31]: 3.59e+06 M⁻¹ s⁻¹
k 2, uncatalyzed: second-order rate constant of FXa inhibition by antithrombin [31]: 1550 M⁻¹ s⁻¹
k 2, UFH: second-order rate constant of FXa inhibition by antithrombin with unfractionated heparin [32]: 6.73e+06 M⁻¹ s⁻¹
k 2, uncatalyzed: second-order rate constant of FXa inhibition by antithrombin [32]: 950 M⁻¹ s⁻¹
k 2, UFH: second-order rate constant of FXa inhibition by antithrombin with unfractionated heparin [33]: 3.09e+06 M⁻¹ s⁻¹
k 2, uncatalyzed: second-order rate constant of FXa inhibition by antithrombin [33]: 4070 M⁻¹ s⁻¹

chimeric factor Xa variant B (human FXa with His91-Tyr99 replaced by the homologous region of Tropid (enzyme)
Kd [19]: 0.85 nM

chimeric factor Xa variant C (human FXa with His91-Tyr99 replaced by the homologous region of P. textilis isoform FX) (enzyme)
Kd [19]: 0.57 nM

recombinant tick saliva anticoagulant protein (from UniProt P17726 1-60) (natural protein)
Ki [6]: 7.92 nM
Ki [34]: 0.87 nM
Ki [7]: 20.2 nM
Ki [8]: 0.7 nM
